Changes are numbered by the printed parent chain.

First the molecules themselves.
B1: Ab5: variant of Ab4 with asparagine to serine substitution in CDR-L1; VH SEQ ID NO:41, VL SEQ ID NO:45 (antibody, V domains shown)
VH: EVQLVESGGGLVQPGGSLRLSCAASGFTFEAYSMNWVRQAPGKGLEWVSYISLSGATIHYADSVKGRFTISRDNAKNSLYLQMNSLRAEDTAVYYCARGGQYYYTSSDYGEVAFDIWGQGTMVTVSS
VL: DIVMTQSPLSLPVTPGEPASISCRSSQSLVSSGYNYLDWYLQKPGQSPQLLIYFGSSRASGVPDRFSGSGSGTDFTLKISRVEAEDVGVYYCMQRRRTPWSFGGGTKVEIK
B2: Ab6: affinity matured human anti-CD45 IgG derived from Ab1; VH SEQ ID NO:51, VL SEQ ID NO:55 (antibody, V domains shown)
VH: B1 VH with M122L
VL: B1 VL with M4L
B3: Ab2: affinity matured human anti-CD45 IgG derived from Ab1; VH SEQ ID NO:11, VL SEQ ID NO:15 (antibody, V domains shown)
VH: B1 VH with T105D
VL: B1 VL with S32N
B4: Ab7: variant of Ab3 with asparagine to serine substitution in CDR-L1; VH SEQ ID NO:61, VL SEQ ID NO:65 (antibody, V domains shown)
VH: B1 VH with E1Q, Q13K, E30G, A31G, L53I, H59T, T105D
VL: DIVMTQSPLSLPVTPGEPASISCRSSQSLVSSGYNYLDWYLQKPGQSPQLLIYFGSSRASGVPDRFSGSGSGTDFTLKISRVEAEDVGVYYCMQRRRTPPFTFGGGTKVEIK
B5: AbC: affinity matured variant of parent clone C; VH SEQ ID NO:91, VL SEQ ID NO:95 (antibody, V domains shown)
VH: EVQLVESGGGLVQPGGSLRLSCAASGFTFNNYWMTWVRQAPGKGLEWVSSISSSGGSIYYPDSVKDRFTISRDNAKNSLYLQMNSLRAEDMAVYYCARLYYYDGGGDAWGQGTLVTVSS
VL: GIQMTQSPSSLSASVGDRVTITCKASQDINKYLDWYQQKPGKAPKLLIYNTNNLHTGIPSRFSGSGSGTDYTLTISSLQPEDFATYYCLQHISRWTFGGGTKVEIK
B6: AbB: affinity matured variant of parent clone B; VH SEQ ID NO:81, VL SEQ ID NO:85 (antibody, V domains shown)
VH: EVQLVESGGGLVQPGGSLRLSCAASGFTFTNFWMAWIRQAPGKGLEWVASISSSGGSIYYPDSVKDRFTISRDNSKNTLYLQMNSLRAEDTAVYYCVKFHHYSGGGDAWGQGTLVTVSS
VL: B5 VL with G1D, D28N, Y49H, N50Y, I92S
B7: AbA: humanized and affinity matured variant of parent clone A; VH SEQ ID NO:71, VL SEQ ID NO:75 (antibody, V domains shown)
VH: EVQLLESGGGLVQPGGSLRLSCAASGFTFNNYWMTWVRQAPGKGLEWVSSISSSGGSIYYPDRVKGRFTISRDNSKNTLYLQMNSLRAEDTAVYYCARDERWAGAMDAWGQGTTVTVSS
VL: DIQMTQSPSSLSASVGDRVTITCKASQNINKNLDWYQQKPGKAPKLLIYETNNLQTGVPSRFSGSGSGTDFTLTISSLQPEDFATYYCYQHNSRFTFGQGTKLEIK

In one assay the test system is cynomolgus CD45 ectodomain. The experiment in a line: Biolayer interferometry (BLI, Octet) binding of immobilized IgG to purified CD45 ectodomain. The note with it: Table 2, Cynomolgus CD45. How it is done: (§1) Antibody binding studies were performed at 25° C. in 1×PBS supplemented with 0.1% w/v bovine serum albumin with a Pall ForteBio Octet Red96 using biolayer interferometry (BLI).
cynomolgus CD45 ectodomain, sequence (as listed by the source): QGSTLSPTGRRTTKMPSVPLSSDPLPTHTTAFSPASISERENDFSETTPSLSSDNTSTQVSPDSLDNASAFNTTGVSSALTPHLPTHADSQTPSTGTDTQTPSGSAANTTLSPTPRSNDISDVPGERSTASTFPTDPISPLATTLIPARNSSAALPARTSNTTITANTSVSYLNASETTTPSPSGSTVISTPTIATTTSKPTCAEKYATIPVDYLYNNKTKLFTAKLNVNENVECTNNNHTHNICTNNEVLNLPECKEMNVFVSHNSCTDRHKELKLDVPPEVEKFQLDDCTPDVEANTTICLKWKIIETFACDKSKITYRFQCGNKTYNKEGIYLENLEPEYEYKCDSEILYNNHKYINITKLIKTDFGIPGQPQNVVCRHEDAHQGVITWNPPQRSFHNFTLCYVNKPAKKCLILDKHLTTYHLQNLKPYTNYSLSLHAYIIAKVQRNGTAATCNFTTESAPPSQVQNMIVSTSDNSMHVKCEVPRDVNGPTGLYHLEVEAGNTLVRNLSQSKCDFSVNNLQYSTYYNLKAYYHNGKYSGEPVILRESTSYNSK
(§2) The apparent monovalent affinity (KD), apparent association rate (KON), and apparent dissociation rate (KOFF) were determined by local full fitting with a 1:1 binding model as calculated by ForteBio data analysis software version 10 of each IgG to purified human, cynomolgus or rhesus CD45 ectodomain. […] Binding was confirmed using
Briefly, antibody binding studies were performed at 25° C. in 1×PBS supplemented with 0.1% w/v bovine serum albumin with a PALL FORTEBIO OCTET RED96 using biolayer interferometry (BLI). […]
(§3) The apparent monovalent affinity (KD), apparent association rate (KON), and apparent dissociation rate (KDIS or KOFF) were determined by local full fitting with a 1:1 binding model as calculated by FORTEBIO data analysis software version 10. […] Each of the selected humanized antibodies AbA, AbB, and AbC was able to cross react with human and cynomolgus CD45.
With B1, the “Kdis” value was 0.000164 s⁻¹ and the “Kon” value is 117000 M⁻¹ s⁻¹.
For B2, in that order: 0.000154 s⁻¹ and 118000 M⁻¹ s⁻¹.
The corresponding values for B3 are 0.000129 s⁻¹ and 119000 M⁻¹ s⁻¹.
For B4, in that order: 0.000537 s⁻¹ and 127000 M⁻¹ s⁻¹.

The assay is the same for the next values; noted with them: Table 2, Cynomolgus CD45; 50 nM antigen (Ab1: 300 nM).
B2: the affinity, expressed as Kd, was 1.3 nM.
Same read-out and setting: the value for B3 was 1.08 nM; that for B4 was 4.24 nM.

Still in this assay, the particulars now being: Table 11, Cyno CD45.
For B5, the “KON” value came to 11100 M⁻¹ s⁻¹ and the “Kdis” value turned out to be 0.000282 s⁻¹.
For B6, the “KON” value was found to be 8160 M⁻¹ s⁻¹ and the “Kdis” value worked out at 0.00042 s⁻¹.
The corresponding values for B7 are 9440 M⁻¹ s⁻¹ and 0.000322 s⁻¹.

The assay is the same for the next values; noted with them: Table 11, Cyno CD45; 300 nM antigen.
The molecule B5 gave a Kd of 25.3 nM.
On the same count and under the same terms, the value for B6 was 51.5 nM; that for B7 was 34.1 nM.

In another assay the target is T1, human CD45 ectodomain (Homo sapiens, UniProt P08575).
T1 construct: purified human, rhesus or cynomolgus CD45 ectodomain
T1 sequence (P08575 26-577): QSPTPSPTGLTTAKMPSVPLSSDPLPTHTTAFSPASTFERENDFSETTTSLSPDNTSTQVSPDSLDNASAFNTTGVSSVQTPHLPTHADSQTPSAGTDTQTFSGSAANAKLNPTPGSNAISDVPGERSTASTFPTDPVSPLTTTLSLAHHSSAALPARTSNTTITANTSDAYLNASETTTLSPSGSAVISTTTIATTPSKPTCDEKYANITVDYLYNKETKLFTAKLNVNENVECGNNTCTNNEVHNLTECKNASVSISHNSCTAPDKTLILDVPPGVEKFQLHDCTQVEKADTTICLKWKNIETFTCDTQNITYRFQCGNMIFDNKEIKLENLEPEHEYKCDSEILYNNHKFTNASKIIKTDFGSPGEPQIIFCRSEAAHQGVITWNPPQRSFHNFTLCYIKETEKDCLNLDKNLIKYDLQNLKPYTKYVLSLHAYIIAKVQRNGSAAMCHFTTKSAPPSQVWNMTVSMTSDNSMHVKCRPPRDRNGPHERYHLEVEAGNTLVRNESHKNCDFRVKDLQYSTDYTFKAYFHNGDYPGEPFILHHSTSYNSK
The description is as above. The note with it: BLI / Octet. How it is done: as §1, §2
Briefly, antibody binding studies were performed at 25° C. in 1×PBS supplemented with 0.1% w/v bovine serum albumin with a PALL FORTEBIO OCTET RED96 using biolayer interferometry (BLI). Each purified antibody was immobilized onto anti-human Fc biosensors (AHQ; PALL FORTEBIO 18-5001) and incubated with 100 nM of purified human or 300 nM of cynomolgus CD45 ectodomain.
as §3
As for B1, the “CD45 binding compared with parent (qualitative)” value was “did not alter CD45 binding”.
As to B4, the “CD45 binding compared with parent (qualitative)” value was “did not alter CD45 binding”.

The assay is the same for the next values; noted with them: Table 2, Human CD45.
On to B1, for which the “Kdis” value worked out at 3.36e-05 s⁻¹ and the “Kon” value was determined as 233000 M⁻¹ s⁻¹.
For B2, in that order: 1.73e-05 s⁻¹ and 242000 M⁻¹ s⁻¹.
With B3, the “Kdis” value worked out at 2.8e-05 s⁻¹ and the “Kon” value is 245000 M⁻¹ s⁻¹.
Turning to B4, the “Kdis” value was found to be 0.000615 s⁻¹ and the “Kon” value came to 264000 M⁻¹ s⁻¹.

The assay is the same for the next values; noted with them: Table 11, Human CD45.
For B5, the “KON” value was found to be 50800 M⁻¹ s⁻¹ and the “Kdis” value was 0.000149 s⁻¹.
For B6, the “KON” value was found to be 43800 M⁻¹ s⁻¹ and the “Kdis” value came out at 0.000239 s⁻¹.
For B7, in that order: 50300 M⁻¹ s⁻¹ and 0.000181 s⁻¹.

Still in this assay, the particulars now being: text b859.
Consider B5, for which the “improved affinity over the parent clone” value is listed as “greater than 4 fold”.

For the next assay, the target named is T2, rhesus CD45 ectodomain (Macaca mulatta, UniProt A0A1D5R142).
T2 construct: purified human, rhesus or cynomolgus CD45 ectodomain
T2 sequence (A0A1D5R142 26-581): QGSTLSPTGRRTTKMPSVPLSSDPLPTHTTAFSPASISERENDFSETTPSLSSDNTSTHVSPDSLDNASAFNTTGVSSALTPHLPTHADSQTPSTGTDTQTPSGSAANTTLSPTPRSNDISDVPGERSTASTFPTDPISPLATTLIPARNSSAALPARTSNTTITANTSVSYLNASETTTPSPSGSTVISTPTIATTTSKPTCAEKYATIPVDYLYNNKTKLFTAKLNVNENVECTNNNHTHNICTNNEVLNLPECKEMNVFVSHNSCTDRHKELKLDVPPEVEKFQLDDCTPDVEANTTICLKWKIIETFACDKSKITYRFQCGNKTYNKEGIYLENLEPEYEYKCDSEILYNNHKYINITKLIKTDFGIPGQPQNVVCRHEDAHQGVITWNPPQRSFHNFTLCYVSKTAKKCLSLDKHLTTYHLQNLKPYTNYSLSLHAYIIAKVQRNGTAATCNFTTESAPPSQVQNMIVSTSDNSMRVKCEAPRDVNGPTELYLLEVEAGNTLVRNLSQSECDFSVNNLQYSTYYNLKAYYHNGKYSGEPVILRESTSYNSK
The assay is described as above. The note with it: Table 2, Rhesus CD45. How it is done:
as §1
The apparent monovalent affinity (KD), apparent association rate (KON), and apparent dissociation rate (KOFF) were determined by local full fitting with a 1:1 binding model as calculated by ForteBio data analysis software version 10 of each IgG to purified human, cynomolgus or rhesus CD45 ectodomain. […] Binding was confirmed using […]
Regarding B1, the “Kdis” value amounted to 0.000193 s⁻¹ and the “Kon” value was 113000 M⁻¹ s⁻¹.
The corresponding values for B2 are 0.000175 s⁻¹ and 122000 M⁻¹ s⁻¹.
For B3, in that order: 0.000192 s⁻¹ and 135000 M⁻¹ s⁻¹.
Turning to B4, the “Kdis” value was 0.000544 s⁻¹ and the “Kon” value stood at 124000 M⁻¹ s⁻¹.

The same assay, now with this note: Table 2, Rhesus CD45; 50 nM antigen (Ab1: 300 nM).
Molecule B1 came in with a Kd of 1.71 nM.
The same measure, in the same setting: the value for B2 was 1.44 nM.
Take B3: the Kd is 1.42 nM.
Still for that read-out and setting: the value for B4 was 4.39 nM.
